System: engineered chimeric receptor SEQ ID NO: 33 and its mutants (human α7-nAChR ligand binding domain / human GlyRα1 ion pore domain) in Lenti-X 293T cells
Experiment: YFP fluorescence quenching anion reporter plate reader assay (percent quench, EC50)
Type: cell-based
Settings: for YFP fluorescence quenching using CNL001 (percent quench): receptor named in row; for YFP fluorescence quenching using Facinicline, 30 nM fac: ligand Facinicline 30 nM; for YFP fluorescence quenching using Facinicline, 300 nM fac: ligand Facinicline 300 nM; for YFP fluorescence quenching using Facinicline, 30 uM fac: ligand Facinicline 30 uM; for YFP fluorescence quenching using TC-6987, 1 uM tc6987: ligand TC-6987 1 uM; for YFP fluorescence quenching using TC-6987, 10 uM tc6987: ligand TC-6987 10 uM; for YFP fluorescence quenching using TC-6987, 500 uM tc6987: ligand TC-6987 500 uM; for YFP fluorescence quenching using Varenicline, 3 nM var: ligand Varenicline 3 nM; for YFP fluorescence quenching using Varenicline, 30 nM var: ligand Varenicline 30 nM; for YFP fluorescence quenching using Varenicline, 300 nM var: ligand Varenicline 300 nM; for YFP fluorescence quenching using Varenicline, 500 nM var: ligand Varenicline 500 nM; for YFP fluorescence quenching using Varenicline, 1 uM var: ligand Varenicline 1 uM
Source text: To screen these mutant LGICs for those having novel response profiles to ligands, an anion reporter assay was developed to assess the function of the LGICs in a high throughput format. In this assay, cells expressing a YFP reporter whose fluorescence is quenched in the presence of anion are transfected with DNA encoding the channel of interest. Upon exposure to ligand, channels that are activated will flux anion, resulting in a dose-dependent quench of the YFP that can be detected on a plate reader. The greater the quench signal (i.e., the more positive the value), the higher the ligand activity on the receptor is.
Lenti-X 293T cells (LX293T, Clontech) were maintained in DMEM containing 10% FBS and 1% penicillin/streptomycin (Invitrogen). […] Two days before assay, cells were split at a density of 20,000 cells/well in a 96-well tissue culture plate coated with poly-d lysine (Thermo Scientific). The next day, the cells were transiently transfected with 0.1 μg of DNA per well using standard Fugene protocol (Promega). On the day of assay, cells were washed 2 times in 1X extracellular solution (1X ECS: 140 mM NaCl, 5 mM KCl, 1 mM MgCl2, 2 mM CaCl2, 10 mM HEPES, 10 mM glucose, pH 7.2, mOsms 300). After the last wash, 100 μL of 1X ECS was added to the wells and the plate was incubated at 37° C. for 30 min. While incubating the plate, the drugs were diluted to a 2X concentration in 1X ECS-Nal (same components as 1X ECS except the 140 mM NaCl was replaced by 140 mM Nal). The plates were then read on a Flexstation3 (Molecular Devices). Each well, 8 wells at a time, of the plate is read for 2 min using a Flexstation3 (Molecular Devices) as follows: 1) a baseline YFP fluorescence is read for 17 sec, 2) 100 μL of ligand is added, and 3) the changes in YFP fluorescence are then measured every 1.3 sec for 1 minute and 43 seconds. The percent quench is calculated from the average fluorescence of the last 10 seconds of the read divided by the baseline average of the first 15 seconds prior to the ligand addition.
FIGS. 1A-1J provide heat maps of the percent quench of YFP fluorescence following stimulation by various doses of either acetylcholine or the non-native ligand as indicated in the Figures. CODA71 (SEQ ID NO: 33) was used as a control, and CODA75 (SEQ ID NO: 29, a non-responding chimeric engineered receptor) was used as the negative control. Quenching of the fluorescence signal, as indicated by blue shaded cells, indicate the level of engineered receptor activation by the non-native ligand at that concentration.

[1] = 1 nM CNL001, first column so headed
[2] = 1 nM CNL001, second column so headed
[3] = 3 nM brd (TC-5619/Bradanicline)
[4] = 10 nM CNL001, first column so headed
[5] = 10 nM CNL001, second column so headed
[6] = 30 nM brd (TC-5619/Bradanicline)
[7] = 50 nM CNL001, first column so headed
[8] = 50 nM CNL001, second column so headed
[9] = 100 nM CNL001, first column so headed
[10] = 100 nM CNL001, second column so headed
[11] = 300 nM brd (TC-5619/Bradanicline)
[12] = 1 uM CNL001, first column so headed
[13] = 1 uM CNL001, second column so headed

B1: CODA283: engineered receptor: Y115E_N379K in SEQ ID NO: 33 (protein)
chain: MRCSPGGVWLALAASLLHVSLQGEFQRKLYKELVKNYNPLERPVANDSQPLTVYFSLSLLQIMDVDEKNQVLTTNIWLQMSWTDHYLQWNVSEYPGVKTVRFPDGQIWKPDILLENSADERFDATFHTNVLVNSSGHCQYLPPGIFKSSCPMDLKNFPMDVQTCKLKFGSWSYGGWSLDLQMQEADISGYIPNGEWDLVGIPGKRSERFYECCKEPYPDVTFTVTMRRRMGYYLIQMYIPSLLIVILSWISFWINMDAAPARVGLGITTVLTMTTQSSGSRASLPKVSYVKAIDIWMAVCLLFVFSALLEYAAVNFVSRQHKELLRFRRKRRHHKSPMLNLFQEDEAGEGRFNFSAYGMGPACLQAKDGISVKGANNSKTTNPPPAPSKSPEEMRKLFIQRAKKIDKISRIGFPMAFLIFNMFYWIIYKIVRREDVHNQ
modifications: synthetic sequence of chimeric LGIC
YFP fluorescence quenching using CNL001 (percent quench) [1]: −0.713% | YFP fluorescence quenching using CNL001 (percent quench) [2]: −0.621% | YFP fluorescence quenching using TC-5619/Bradanicline (percent quench) (1 nM brd (TC-5619/Bradanicline)): 0.59% | YFP fluorescence quenching using TC-5619/Bradanicline (percent quench) [3]: −6.41% | YFP fluorescence quenching using CNL001 (percent quench) [4]: 7.739% | YFP fluorescence quenching using CNL001 (percent quench) [5]: 15.277% | YFP fluorescence quenching using TC-5619/Bradanicline (percent quench) (10 nM brd (TC-5619/Bradanicline)): −1.58% | YFP fluorescence quenching using TC-5619/Bradanicline (percent quench) [6]: −14.24% | YFP fluorescence quenching using CNL001 (percent quench) [7]: 19.489% | YFP fluorescence quenching using CNL001 (percent quench) [8]: 33.703% | YFP fluorescence quenching using ABT-126 (percent quench) (50 nM abt (ABT-126)): −22.65% | YFP fluorescence quenching using CNL001 (percent quench) [9]: 56.886% | YFP fluorescence quenching using CNL001 (percent quench) [10]: 60.171% | YFP fluorescence quenching (percent quench) (100 nM CNL002): −5.81% | YFP fluorescence quenching using ABT-126 (percent quench) (100 nM abt (ABT-126)): −20.55% | YFP fluorescence quenching using AZD-0328 (percent quench) (100 nM azd0328): −2.1% | YFP fluorescence quenching using TC-5619/Bradanicline (percent quench) (100 nM brd (TC-5619/Bradanicline)): 33.36% | YFP fluorescence quenching using ABT-126 (percent quench) (300 nM abt (ABT-126)): −12.93% | YFP fluorescence quenching using AZD-0328 (percent quench) (300 nM azd0328): 38.2% | YFP fluorescence quenching using TC-5619/Bradanicline (percent quench) [11]: 43.81% | YFP fluorescence quenching using CNL001 (percent quench) [12]: 69.836% | YFP fluorescence quenching using CNL001 (percent quench) [13]: 73.855% | YFP fluorescence quenching (percent quench) (1 uM CNL002): 9.69% | YFP fluorescence quenching using ABT-126 (percent quench) (1 uM abt (ABT-126)): 1.71% | YFP fluorescence quenching using TC-5619/Bradanicline (percent quench) (1 uM brd (TC-5619/Bradanicline)): 75.39% | YFP fluorescence quenching (percent quench) (10 uM ach (acetylcholine)): −6.16% | YFP fluorescence quenching (percent quench) (30 uM CNL002): −12.85% | YFP fluorescence quenching using AZD-0328 (percent quench) (30 uM azd0328): 79.44% | YFP fluorescence quenching (percent quench) (100 uM ach (acetylcholine)): −11.12% | YFP fluorescence quenching (percent quench) (1 mM ach (acetylcholine)): −2.74% | YFP fluorescence quenching (percent quench) (3 mM ach (acetylcholine)): 53.61% | YFP fluorescence quenching using Facinicline, 30 nM fac: 6.39 | YFP fluorescence quenching using Facinicline, 300 nM fac: 78.36 | YFP fluorescence quenching using Facinicline, 10 uM fac (ligand Facinicline 10 uM): 81.93 | YFP fluorescence quenching using Facinicline, 30 uM fac: 78.63 | YFP fluorescence quenching using TC-6987, 1 uM tc6987: −9.54 | YFP fluorescence quenching using TC-6987, 10 uM tc6987: −7.06 | YFP fluorescence quenching using TC-6987, 500 uM tc6987: −15.15

B2: CODA325: engineered receptor: L131G in SEQ ID NO: 33 (protein)
chain: MRCSPGGVWLALAASLLHVSLQGEFQRKLYKELVKNYNPLERPVANDSQPLTVYFSLSLLQIMDVDEKNQVLTTNIWLQMSWTDHYLQWNVSEYPGVKTVRFPDGQIWKPDILLYNSADERFDATFHTNVGVNSSGHCQYLPPGIFKSSCPMDLKNFPMDVQTCKLKFGSWSYGGWSLDLQMQEADISGYIPNGEWDLVGIPGKRSERFYECCKEPYPDVTFTVTMRRRMGYYLIQMYIPSLLIVILSWISFWINMDAAPARVGLGITTVLTMTTQSSGSRASLPKVSYVKAIDIWMAVCLLFVFSALLEYAAVNFVSRQHKELLRFRRKRRHHKSPMLNLFQEDEAGEGRFNFSAYGMGPACLQAKDGISVKGANNSNTTNPPPAPSKSPEEMRKLFIQRAKKIDKISRIGFPMAFLIFNMFYWIIYKIVRREDVHNQ
modifications: synthetic sequence of chimeric LGIC
YFP fluorescence quenching using CNL001 (percent quench) [1]: 74.429% | YFP fluorescence quenching using CNL001 (percent quench) [2]: 78.715% | YFP fluorescence quenching using TC-5619/Bradanicline (percent quench) [3]: 68.45% | YFP fluorescence quenching using CNL001 (percent quench) [4]: 79.033% | YFP fluorescence quenching using CNL001 (percent quench) [5]: 79.322% | YFP fluorescence quenching using TC-6683 (percent quench) (30 nM TC-6683): −21.27% | YFP fluorescence quenching using TC-5619/Bradanicline (percent quench) [6]: 76.95% | YFP fluorescence quenching using CNL001 (percent quench) [7]: 79.966% | YFP fluorescence quenching using CNL001 (percent quench) [8]: 80.091% | YFP fluorescence quenching using ABT-126 (percent quench) (50 nM abt (ABT-126)): −17.39% | YFP fluorescence quenching using CNL001 (percent quench) [9]: 81% | YFP fluorescence quenching using CNL001 (percent quench) [10]: 79.701% | YFP fluorescence quenching (percent quench) (100 nM CNL002): 45.62% | YFP fluorescence quenching using ABT-126 (percent quench) (100 nM abt (ABT-126)): 6.89% | YFP fluorescence quenching using AZD-0328 (percent quench) (100 nM azd0328): 79.75% | YFP fluorescence quenching using TC-6683 (percent quench) (300 nM TC-6683): −18.33% | YFP fluorescence quenching using ABT-126 (percent quench) (300 nM abt (ABT-126)): 38.65% | YFP fluorescence quenching using AZD-0328 (percent quench) (300 nM azd0328): 80.62% | YFP fluorescence quenching using TC-5619/Bradanicline (percent quench) [11]: 77.1% | YFP fluorescence quenching using CNL001 (percent quench) [12]: 79.289% | YFP fluorescence quenching using CNL001 (percent quench) [13]: 80.581% | YFP fluorescence quenching (percent quench) (1 uM CNL002): 74.72% | YFP fluorescence quenching using ABT-126 (percent quench) (1 uM abt (ABT-126)): 45.82% | YFP fluorescence quenching using TC-6683 (percent quench) (3 uM TC-6683): −7.03% | YFP fluorescence quenching (percent quench) (10 uM ach (acetylcholine)): 5.66% | YFP fluorescence quenching (percent quench) (30 uM CNL002): 77.4% | YFP fluorescence quenching using TC-6683 (percent quench) (30 uM TC-6683): 56.84% | YFP fluorescence quenching using AZD-0328 (percent quench) (30 uM azd0328): 80.19% | YFP fluorescence quenching using TC-6683 (percent quench) (100 uM TC-6683): 64.51% | YFP fluorescence quenching (percent quench) (100 uM ach (acetylcholine)): 74.07% | YFP fluorescence quenching (percent quench) (1 mM ach (acetylcholine)): 62.65% | YFP fluorescence quenching (percent quench) (3 mM ach (acetylcholine)): 69.49% | YFP fluorescence quenching using Facinicline, 30 nM fac: 75.75 | YFP fluorescence quenching using Facinicline, 300 nM fac: 78.01 | YFP fluorescence quenching using Facinicline, 30 uM fac: 76.61 | YFP fluorescence quenching using TC-6987, 1 uM tc6987: 64.59 | YFP fluorescence quenching using TC-6987, 10 uM tc6987: 76.28 | YFP fluorescence quenching using TC-6987, 500 uM tc6987: 70.95 | YFP fluorescence quenching using Varenicline, 3 nM var (first column): −12.241 | YFP fluorescence quenching using Varenicline, 3 nM var (second column): −9.415 | YFP fluorescence quenching using Varenicline, 30 nM var (first column): 75.334 | YFP fluorescence quenching using Varenicline, 30 nM var (second column): 72.278 | YFP fluorescence quenching using Varenicline, 300 nM var (first column): 78.305 | YFP fluorescence quenching using Varenicline, 300 nM var (second column): 77.83 | YFP fluorescence quenching using Varenicline, 500 nM var (first column): 75.936 | YFP fluorescence quenching using Varenicline, 500 nM var (second column): 76.788 | YFP fluorescence quenching using Varenicline, 1 uM var (first column): 77.805 | YFP fluorescence quenching using Varenicline, 1 uM var (second column): 77.352

Source: patent publication US20250152742A1, “COMPOSITIONS AND METHODS FOR NEUROLOGICAL DISEASES” (Trames Bio, Inc., priority 2022, published 2025)
